{"source": "paper doi:10.1101/2022.08.30.505852", "about": "(bioRxiv, 2022)", "binders": {"B1": {"name": "TAZ2 domain of p300 (residues 1723-1812 with four stabilizing mutations) (domain or fragment, UniProt Q09472 1723-1812, looked up)", "chain": "ATQSPGDSRRLSIQRAIQSLVHAAQCRNANCSLPSCQKMKRVVQHTKGCKRKTNGGCPICKQLIALAAYHAKHCQENKCPVPFCLNIKQK"}, "B2": {"name": "TAZ1 domain of CBP (residues 346-440) (domain or fragment)", "chain": "not shown"}, "B3": {"name": "βCAT_(TAD2), β-catenin residues 730-781 (domain or fragment, human, UniProt P35222 730-781, looked up)", "chain": "GMDPMMEHEMGGHHPGADYPVDGLPDLGHAQDLMDGLPPGDSNQLAWFDTDL"}, "B4": {"name": "βCAT_(750-781), β-catenin residues 750-781 (peptide, UniProt P35222 750-781, looked up)", "chain": "VDGLPDLGHAQDLMDGLPPGDSNQLAWFDTDL"}}, "test_in_all_cases": "ITC", "key": {"[1]": {"target": "B3"}, "[2]": {"target": "T1, βCAT_(CTERM), β-catenin residues 666-781 (human, UniProt P35222 666-781)", "T1 sequence (looked up)": "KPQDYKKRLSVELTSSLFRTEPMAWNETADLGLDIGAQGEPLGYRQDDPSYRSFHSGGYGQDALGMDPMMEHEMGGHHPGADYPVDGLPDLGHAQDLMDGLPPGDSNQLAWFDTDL"}, "βCAT_(CTERM) D764A": {"target": "T2, βCAT_(CTERM) D764A (human, UniProt P35222 666-781, D764A)", "T2 sequence (looked up)": "T1 sequence (looked up) with D99A"}, "βCAT_(CTERM) D761A": {"target": "T3, βCAT_(CTERM) D761A (human, UniProt P35222 666-781, D761A)", "T3 sequence (looked up)": "T1 sequence (looked up) with D96A"}, "βCAT_(CTERM) D751A": {"target": "T4, βCAT_(CTERM) D751A (human, UniProt P35222 666-781, D751A)", "T4 sequence (looked up)": "T1 sequence (looked up) with D86A"}, "βCAT_(CTERM) F777A": {"target": "T5, βCAT_(CTERM) F777A (human, UniProt P35222 666-781, F777A)", "T5 sequence (looked up)": "T1 sequence (looked up) with F112A"}, "[3]": {"target": "B2"}}, "note": "Substitutions are numbered along the chain they refer to. “And” between values parts separate entries of the source, which are not always exact repeats. Equal values may be shown once."}
{"binder": "B1", "values": [{"measurement": "Kd2 (two-site fit)", "setting": "[1]", "result": "1.18 ± 0.43", "unit": "µM"}, {"measurement": "Kd2 (two-site fit)", "setting": "[2]", "result": "3.42 ± 0.2", "unit": "µM"}]}
{"binder": "B2", "values": [{"measurement": "Kd", "setting": "βCAT_(CTERM) D764A", "result": "320 nM and 600 nM"}, {"measurement": "Kd", "setting": "βCAT_(CTERM) D761A", "result": "600 nM and 390 nM"}, {"measurement": "Kd", "setting": "βCAT_(CTERM) D751A", "result": "390 nM and 550 nM"}, {"measurement": "Kd", "setting": "βCAT_(CTERM) F777A", "result": "550 nM and 320 nM"}, {"measurement": "Kd2 (two-site fit)", "setting": "[2]", "result": "0.65 ± 0.22", "unit": "µM"}]}
{"binder": "B3", "values": [{"measurement": "Kd", "setting": "[3]", "result": "380 ± 20", "unit": "nM"}]}
{"binder": "B4", "values": [{"measurement": "Kd", "setting": "[3]", "result": "2170 ± 70", "unit": "nM"}]}
